Patent US9670264B2, “Water soluble G-protein coupled receptor” (The Trustees of The University of Pennsylvania, priority 2013, dated 2017)

How the values were obtained:
[1] = Secondary structure by circular dichroism (CD); assay type: physicochemical; settings: CD 205-260 nm
Text: The CD spectra indicated predominantly helical structures with a helical secondary structure content of ˜48% (estimations based on the molar ellipticity over the range 205 to 260 nm). The comparison of the helical content with that of the native human MUR expressed in yeast system in the presence of high concentration of detergent (0.1% SDS) is presented in Table 1.

[2] = test system: human μ opioid receptor expressed in HEK293 cells; assay: Binding competition assay (TR-FRET/HTRF) between native human μ opioid receptor and water-soluble variants, with a fluorescent naltrexone-derived antagonist; settings: FIG. 10, as for FIG. 7
Text: FIG. 7. […] Data is used to calculate HTRF ratios, and represent the mean±standard error of mean of quadruplicates. ΔF is used for the comparison of different runs of the same assay which reflects the signal to background of the assay. ΔF=[(Ratiosample−Ratiobackgroud)/Ratiobackgroud] (%).
A recently developed methodology which uses a fluorescently labeled ligand and the native MUR was used to investigate the ligand-binding capabilities of the water-soluble receptors.

[3] = Effects of denaturant (urea) and reducing agent (2-ME), by CD and intrinsic tryptophan fluorescence; assay type: physicochemical
Procedure: CD and intrinsic tryptophan fluorescence were used to probe disulfide bond formation in the water-soluble variant. […] Even in 8 M urea, the protein retains some helical structure (Table 2). Upon addition of 2-ME, both the molar ellipticity and fluorescence further decreased, becoming more pronounced at the higher concentration of the reducing agent (200 mM). Thus the presence of an intramolecular disulfide bond is corroborated in the case of wsMUR-TM.
Of particular interest are the tryptophan residues located in the partially buried transmembrane locations of the model structure (positions 194, 295, and 320). The fluorescence associated with these residues is expected to be sensitive to the local hydrophobic environment and overall folding of the protein.
The decrease of the tryptophan fluorescence under denaturing conditions and in the presence of 2-ME is consistent with the changes in CD spectra observed under similar conditions. The requirement of the reducing agent to fully denature and unfold the protein indicates the relevance of an intramolecular disulfide bond in stabilizing the receptor structure. […] However, the CD and ligand-binding studies are consistent with the adoption of the proper protein tertiary structure and by extension with the formation of the correct disulfide bond.

[4] = Thermostability monitored by CD (222 nm); assay type: physicochemical; settings: 5 mM sodium phosphate, pH=7.0; for melting point: 0.01% SDS
Procedure: The secondary structure of the water-soluble variant was determined through circular dichroism (CD). Circular dichroism (CD) spectra were recorded by using CD Spectrometer (Chirascan, AppliedPhotophysics Limited, Leatherhead, United Kingdom) with a scan speed of 1 nm/s and 1 mm path length. Corresponding blanks were used for calibration for each assay and subtracted from raw data. Two data sets were recorded and averaged to increase the signal-to-noise ratio. The CDNN CD spectra deconvolution software was utilized to determine the secondary structure content of the proteins. […] Absorbance was maintained lower than 1.0 to ensure sufficient light transmission. The temperature-dependence curve was plotted using GraphPad Prism® (version 5, GraphPad Software, Inc. La Jolla).

[5] = pH 7.0 + 0.1% SDS, expressed in yeast system
[6] = None (no denaturant or reducing agent; normalisation reference)

## Native MUR: native human μ receptor expressed in yeast system, in 0.1% SDS [reference compound]
[1]; [5]
  Helix content: 40.6%
  Others content: 40.5%
  Turn content: 18.9%

B1: wsMUR-TM+7mut: second wsMUR recombinant protein (protein)
chain: SMITAIKILEEYKKVCEEGRKGNKLVMEVIVRYTKMKTATNIYIFNLAKADALAESTLPFQSVNKLMGTWPFGTILCKKVISIDYYNMFTSIFTLCTMSVDRYIAVCHPVKALDFRTPRNAKEHNEKNWKLSSEIGKPVEKRATTKYRQGSIDCTLTFSHPTWYWEDKLKDTVFKKAFEEPVKVIKECYGLMILRLKSVRMLSGSKEKDRNLRRITRMVLVVVEVFIKCWTEIHKYVKEGKL
[2]
  binding activity (interaction with naltrexone): binding activity was also observed

B2: wsMUR-TM: computationally designed transmembrane-only water-soluble variant of the human μ opioid receptor (protein)
chain: SMITAIKIHEEYKKVCEEGKKGNKLVMEVIVRYTKMKTATNIYIFNLAKADALAESTLPFQSVNKLMGTWPFGTILCKKVISIDYYNMFTSIFTLCTMSVDRYIAVCHPVKALDFRTPRNAKEENEKNWKLSSEIGKPVEKKATTKYRQGSIDCTLTFSHPTWYWEDKLKDEVFKKAFEEPVKKIKECYGLMILRLKSVRMLSGSKEKDRNLRRITRMVLVVVEVFIKCWTEIHKYVKEGKLVTIPETTFQTVSWHECIAKGYKNSCENPKLYEELDENFKRCFREFC
[3]; [6]
  Fluorescence Peak Intensity (%; 300-350 nm): 100.0%
  Molar Ellipticity (%; 222 nm): 100.0%
[3]; Urea (8M)
  Fluorescence Peak Intensity (%; 300-350 nm): 28.4%
  Molar Ellipticity (%; 222 nm): 40.0%
[3]; Urea (8M) 2-ME (25 mM)
  Fluorescence Peak Intensity (%; 300-350 nm): 23.9%
  Molar Ellipticity (%; 222 nm): 25.1%
[3]; Urea (8M) 2-ME (200 mM)
  Fluorescence Peak Intensity (%; 300-350 nm): 4.5%
  Molar Ellipticity (%; 222 nm): 0.0%
[1]; pH 7.0 in NaHPO4
  Helix content: 48.0%
  Others content: 37.4%
  Turn content: 14.6%
[4]; 10 to 90° C.
  temperature at which almost fully unfolded (almost complete loss in molar ellipticity): 90 °C
  temperature at which ellipticity starts to be lost significantly: ~62 °C
[4]; absence of cholesterol
  melting point: 82.9 °C
[4]; presence of cholesterol
  melting point: 89.3 °C
